Laboratory results as given in article PMC10397247.

T1: 4H2253-AA
T1 chain: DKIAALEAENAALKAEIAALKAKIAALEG

T2: 4H2274-AA
T2 chain: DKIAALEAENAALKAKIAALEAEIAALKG

T3: 4H2330-AA
T3 chain: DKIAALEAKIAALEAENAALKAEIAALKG

T4: 4H2389-AA
T4 chain: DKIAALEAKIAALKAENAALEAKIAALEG

T5: 4H2438-AA
T5 chain: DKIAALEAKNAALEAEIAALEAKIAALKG

T6: 4H2473-AA
T6 chain: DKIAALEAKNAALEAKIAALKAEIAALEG

T7: 4H249-AA
T7 chain: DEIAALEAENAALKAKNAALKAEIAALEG

T8: 4H2698-AA
T8 chain: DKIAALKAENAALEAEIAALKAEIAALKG

T9: 4H2774-AA
T9 chain: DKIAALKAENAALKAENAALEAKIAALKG

T10: 4H2865-AA
T10 chain: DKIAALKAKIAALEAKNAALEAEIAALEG

T11: 4H3009-AA
T11 chain: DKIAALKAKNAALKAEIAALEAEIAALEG

T12: 4H310-AA
T12 chain: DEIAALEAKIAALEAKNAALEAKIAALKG

T13: 4H3120-AA
T13 chain: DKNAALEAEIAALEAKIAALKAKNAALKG

T14: 4H3130-AA
T14 chain: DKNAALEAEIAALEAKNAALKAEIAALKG

T15: 4H3165-AA
T15 chain: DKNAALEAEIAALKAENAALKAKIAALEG

T16: 4H3381-AA
T16 chain: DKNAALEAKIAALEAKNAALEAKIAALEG

T17: 4H3395-AA
T17 chain: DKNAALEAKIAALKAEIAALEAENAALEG

T18: 4H3410-AA
T18 chain: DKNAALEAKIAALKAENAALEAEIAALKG

T19: 4H3590-AA
T19 chain: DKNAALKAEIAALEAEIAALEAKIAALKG

T20: 4H3606-AA
T20 chain: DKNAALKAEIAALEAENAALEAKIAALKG

T21: 4H3631-AA
T21 chain: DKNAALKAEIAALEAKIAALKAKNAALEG

T22: 4H3697-AA
T22 chain: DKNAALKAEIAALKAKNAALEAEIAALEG

T23: 4H3718-AA
T23 chain: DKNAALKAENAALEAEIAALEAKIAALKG

T24: 4H3753-AA
T24 chain: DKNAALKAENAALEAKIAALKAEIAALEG

T25: 4H3865-AA
T25 chain: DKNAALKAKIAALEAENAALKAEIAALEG

T26: 4H458-AA
T26 chain: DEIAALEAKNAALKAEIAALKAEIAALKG

T27: 4H485-AA
T27 chain: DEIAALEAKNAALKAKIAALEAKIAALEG

T28: 4H536-AA
T28 chain: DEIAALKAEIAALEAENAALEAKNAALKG

T29: 4H570-AA
T29 chain: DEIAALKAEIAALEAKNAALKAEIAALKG

T30: 4H697-AA
T30 chain: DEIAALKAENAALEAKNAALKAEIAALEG

T31: 4H710-AA
T31 chain: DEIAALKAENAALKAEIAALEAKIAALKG

T32: 4H745-AA
T32 chain: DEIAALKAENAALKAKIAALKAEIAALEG

T33: 4H797-AA
T33 chain: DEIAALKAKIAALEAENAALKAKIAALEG

T34: 4H850-AA
T34 chain: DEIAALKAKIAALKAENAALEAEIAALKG

T35: 4H891-AA
T35 chain: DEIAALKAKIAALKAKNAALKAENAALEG

T36: 4H909-AA
T36 chain: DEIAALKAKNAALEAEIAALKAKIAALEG

T37: 4H930-AA
T37 chain: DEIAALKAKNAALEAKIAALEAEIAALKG

T38: 4H94-AA
T38 chain: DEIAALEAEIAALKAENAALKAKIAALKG

T39: 4H982-AA
T39 chain: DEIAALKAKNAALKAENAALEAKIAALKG

B1: 4H1142-AA (peptide)
chain: DENAALEAEIAALKAKNAALEAKIAALKG
B2: 4H1626-AA (peptide)
chain: DENAALKAEIAALKAENAALKAEIAALKG
B3: 4H171-AA (peptide)
chain: DEIAALEAENAALEAKIAALKAENAALEG

Target: T1, 4H2253-AA
Test: two-hybrid library CCmax;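 also: natural log of median RNA to DNA barcode read ratio; higher means stronger binding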
Settings: mean of both orientations

interaction score	Binder
-1.49	B1
-1.52	B2
-1.44	B3

Target: T2, 4H2274-AA
Test: two-hybrid library CCmax;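 also: natural log of median RNA to DNA barcode read ratio; higher means stronger binding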
Settings: not given

interaction score	Binder
-1.11	B1

Same assay, conditions: mean of both orientations

interaction score	Binder
-1.5	B2
-1.17	B3

Target: T3, 4H2330-AA
Test: two-hybrid library CCmax;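 also: natural log of median RNA to DNA barcode read ratio; higher means stronger binding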
Settings: mean of both orientations

interaction score	Binder
-1.84	B1
-1.37	B2
-2.02	B3

Target: T4, 4H2389-AA
Test: two-hybrid library CCmax;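 also: natural log of median RNA to DNA barcode read ratio; higher means stronger binding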
Settings: mean of both orientations

interaction score	Binder
-0.327	B1
-1.4	B2
-1.07	B3

Target: T5, 4H2438-AA
Test: two-hybrid library CCmax;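 also: natural log of median RNA to DNA barcode read ratio; higher means stronger binding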
Settings: mean of both orientations

interaction score	Binder
-0.434	B1
-1.65	B2
0.734	B3

Target: T6, 4H2473-AA
Test: two-hybrid library CCmax;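 also: natural log of median RNA to DNA barcode read ratio; higher means stronger binding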
Settings: mean of both orientations

interaction score	Binder
-2.06	B1
-1.45	B2
-1.21	B3

Target: T7, 4H249-AA
Test: two-hybrid library CCmax
Settings: mean of both orientations

interaction score	Binder
-1.39	B2

Target: T8, 4H2698-AA
Test: two-hybrid library CCmax
Settings: not given

interaction score	Binder
-0.616	B3

Same assay, conditions: mean of both orientations

interaction score	Binder
-1.05	B1
-1.09	B2

Target: T9, 4H2774-AA
Test: two-hybrid library CCmax
Settings: mean of both orientations

interaction score	Binder
-1.46	B2

Target: T10, 4H2865-AA
Test: two-hybrid library CCmax
Settings: not given

interaction score	Binder
-0.997	B3

Same assay, conditions: mean of both orientations

interaction score	Binder
1.33	B1
-1.68	B2

Target: T11, 4H3009-AA
Test: two-hybrid library CCmax
Settings: mean of both orientations

interaction score	Binder
-0.415	B1
-1.64	B2
2.13	B3

Target: T12, 4H310-AA
Test: two-hybrid library CCmax
Settings: not given

interaction score	Binder
-1.4	B1

Same assay, conditions: mean of both orientations

interaction score	Binder
-1.28	B2
-1.66	B3

Target: T13, 4H3120-AA
Test: two-hybrid library CCmax
Settings: mean of both orientations

interaction score	Binder
-1.55	B1
-1.91	B2
-1.42	B3

Target: T14, 4H3130-AA
Test: two-hybrid library CCmax
Settings: mean of both orientations

interaction score	Binder
0.0677	B1
-0.637	B2
0.164	B3

Target: T15, 4H3165-AA
Test: two-hybrid library CCmax
Settings: mean of both orientations

interaction score	Binder
-0.754	B1
-0.447	B2
-1.21	B3

Target: T16, 4H3381-AA
Test: two-hybrid library CCmax
Settings: mean of both orientations

interaction score	Binder
-0.986	B1
-1.5	B2
-1.57	B3

Target: T17, 4H3395-AA
Test: two-hybrid library CCmax
Settings: mean of both orientations

interaction score	Binder
-1.76	B1
-1.69	B2
-1.24	B3

Target: T18, 4H3410-AA
Test: two-hybrid library CCmax
Settings: mean of both orientations

interaction score	Binder
0.438	B1
-0.738	B2
-0.741	B3

Target: T19, 4H3590-AA
Test: two-hybrid library CCmax
Settings: mean of both orientations

interaction score	Binder
0.23	B1
-1.51	B2
-0.733	B3

Target: T20, 4H3606-AA
Test: two-hybrid library CCmax
Settings: mean of both orientations

interaction score	Binder
1.65	B1

Target: T21, 4H3631-AA
Test: two-hybrid library CCmax
Settings: not given

interaction score	Binder
-1.43	B1

Target: T22, 4H3697-AA
Test: two-hybrid library CCmax
Settings: mean of both orientations

interaction score	Binder
2.08	B1
-1.21	B2
-0.767	B3

Target: T23, 4H3718-AA
Test: two-hybrid library CCmax
Settings: mean of both orientations

interaction score	Binder
-1.33	B1

Target: T24, 4H3753-AA
Test: two-hybrid library CCmax
Settings: mean of both orientations

interaction score	Binder
-2.1	B1
-1.54	B2
-1.25	B3

Target: T25, 4H3865-AA
Test: two-hybrid library CCmax
Settings: mean of both orientations

interaction score	Binder
0.444	B1
-0.626	B2
-0.476	B3

Target: T26, 4H458-AA
Test: two-hybrid library CCmax
Settings: mean of both orientations

interaction score	Binder
-1.34	B1
-1.65	B2
-0.711	B3

Target: T27, 4H485-AA
Test: two-hybrid library CCmax
Settings: mean of both orientations

interaction score	Binder
-0.612	B1
-1.46	B2
-0.423	B3

Target: T28, 4H536-AA
Test: two-hybrid library CCmax
Settings: mean of both orientations

interaction score	Binder
-1.1	B1
-1.73	B2
-1.32	B3

Target: T29, 4H570-AA
Test: two-hybrid library CCmax
Settings: mean of both orientations

interaction score	Binder
-0.319	B1
0.298	B2
-0.493	B3

Target: T30, 4H697-AA
Test: two-hybrid library CCmax
Settings: mean of both orientations

interaction score	Binder
-1.71	B1

Target: T31, 4H710-AA
Test: two-hybrid library CCmax
Settings: mean of both orientations

interaction score	Binder
-1.52	B1
-1.04	B2
0.905	B3

Target: T32, 4H745-AA
Test: two-hybrid library CCmax
Settings: mean of both orientations

interaction score	Binder
-1.19	B1
-1.25	B2
-1.45	B3

Target: T33, 4H797-AA
Test: two-hybrid library CCmax
Settings: mean of both orientations

interaction score	Binder
-1.29	B1
-1.41	B2
-1.36	B3

Target: T34, 4H850-AA
Test: two-hybrid library CCmax
Settings: mean of both orientations

interaction score	Binder
0.681	B1
1.29	B2
-1.11	B3

Target: T35, 4H891-AA
Test: two-hybrid library CCmax
Settings: mean of both orientations

interaction score	Binder
-1.23	B1
-1.64	B2
-0.295	B3

Target: T36, 4H909-AA
Test: two-hybrid library CCmax
Settings: mean of both orientations

interaction score	Binder
-1.05	B1
-1.36	B2
-1.12	B3

Target: T37, 4H930-AA
Test: two-hybrid library CCmax
Settings: mean of both orientations

interaction score	Binder
-1.1	B1
-1.25	B2
-1.29	B3

Target: T38, 4H94-AA
Test: two-hybrid library CCmax
Settings: mean of both orientations

interaction score	Binder
-1.72	B1
1.29	B2
-1.72	B3

Target: T39, 4H982-AA
Test: two-hybrid library CCmax
Settings: mean of both orientations

interaction score	Binder
-1.22	B1
